Our source for the stoichiometry N values is article PMC11649927.

Test in all cases: cryo-EM structure; single-particle cryo-EM of S trimers in situ on PFA-fixed, concentrated virions; C3 symmetry for the 3-closed-RBD maps, focused classification for 1-open-RBD trimers
Assay [1] addresses SARS-CoV-2 spike (S) protein of the Alpha variant (B.1.1.7), on virions (SARS-CoV-2).
Assay [2] has as its target SARS-CoV-2 spike (S) protein of the B.1 variant (B.1.238), on virions (SARS-CoV-2).
Assay [3] has as its target SARS-CoV-2 spike (S) protein of the Delta variant (B.1.617.2), on virions (SARS-CoV-2).
The target of assay [4] is SARS-CoV-2 spike (S) protein of the Gamma variant (P.1), on virions (SARS-CoV-2).
The target of assay [5] is SARS-CoV-2 spike (S) protein of the Mu variant (B.1.621), on virions (SARS-CoV-2).

As usually defined, the stoichiometry N is the number of molecules, sites or subunits per partner or assembly.

“SARS-CoV-2 spike (S) protein of the Alpha variant (B.1.1.7), on virions (natural protein)”: the stoichiometry N in assay [1] turned out to be 3.

Turning to “SARS-CoV-2 spike (S) protein of the B.1 variant (B.1.238), on virions (natural protein)”, in assay [2], the stoichiometry N came out at 3.

The substance “SARS-CoV-2 spike (S) protein of the Delta variant (B.1.617.2), on virions (natural protein)” showed a stoichiometry N in assay [3] of 3.

For “SARS-CoV-2 spike (S) protein of the Gamma variant (P.1), on virions (natural protein)”, the stoichiometry N in assay [4] came out at 3.

With “SARS-CoV-2 spike (S) protein of the Mu variant (B.1.621), on virions (natural protein)”, in assay [5], the stoichiometry N came out at 3.
